According to article PMC2756588:

T1: Abp1, P15891
T1 sequence (P15891 535-592, looked up): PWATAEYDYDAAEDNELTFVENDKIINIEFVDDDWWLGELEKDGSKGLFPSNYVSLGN

T2: Cyk3, Q07533
T2 sequence (Q07533 1-83, looked up): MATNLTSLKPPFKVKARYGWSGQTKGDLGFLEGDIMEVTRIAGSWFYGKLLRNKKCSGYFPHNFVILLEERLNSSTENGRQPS

T3: Boi1, P38041
T3 sequence (P38041 1-86, looked up): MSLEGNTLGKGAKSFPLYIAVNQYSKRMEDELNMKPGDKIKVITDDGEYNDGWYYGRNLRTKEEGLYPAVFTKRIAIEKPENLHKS

T4: Myo5, Q04439
T4 sequence (Q04439 1072-1160, looked up): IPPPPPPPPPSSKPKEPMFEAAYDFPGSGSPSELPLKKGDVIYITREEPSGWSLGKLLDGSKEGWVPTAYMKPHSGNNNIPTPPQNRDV

T5: Hof1, Q05080
T5 sequence (Q05080 590-669, looked up): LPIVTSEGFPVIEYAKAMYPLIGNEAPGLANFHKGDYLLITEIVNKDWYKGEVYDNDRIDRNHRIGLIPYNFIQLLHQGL

T6: Bbc1, P47068
T6 sequence (P47068 1-78, looked up): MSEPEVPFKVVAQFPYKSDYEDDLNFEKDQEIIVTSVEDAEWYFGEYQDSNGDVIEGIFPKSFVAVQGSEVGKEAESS

T7: Nbp2, Q12163
T7 sequence (Q12163 103-180, looked up): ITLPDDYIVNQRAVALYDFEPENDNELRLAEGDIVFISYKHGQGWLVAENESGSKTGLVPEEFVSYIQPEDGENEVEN

T8: Sla1-2, P32790
T8 sequence (P32790 60-140, looked up): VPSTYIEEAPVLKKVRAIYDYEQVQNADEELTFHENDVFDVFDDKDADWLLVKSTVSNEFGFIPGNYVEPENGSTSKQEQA

T9: Lsb3, P43603
T9 sequence (P43603 385-451, looked up): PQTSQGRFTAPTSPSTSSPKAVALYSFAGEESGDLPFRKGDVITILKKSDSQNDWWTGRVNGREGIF

T10: Lsb1, P53281
T10 sequence (P53281 45-122, looked up): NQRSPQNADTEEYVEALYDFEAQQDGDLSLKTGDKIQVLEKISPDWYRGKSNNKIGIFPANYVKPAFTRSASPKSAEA

T11: Sla1-3, P32790
T11 sequence (P32790 344-424, looked up): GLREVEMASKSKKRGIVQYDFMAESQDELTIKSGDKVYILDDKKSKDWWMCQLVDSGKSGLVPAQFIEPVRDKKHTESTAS

T12: Pin3, Q06449
T12 sequence (Q06449 53-122, looked up): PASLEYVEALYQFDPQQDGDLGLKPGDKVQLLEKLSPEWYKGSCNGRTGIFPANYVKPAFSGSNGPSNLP

T13: Pex13, P80667
T13 sequence (P80667 295-386, looked up): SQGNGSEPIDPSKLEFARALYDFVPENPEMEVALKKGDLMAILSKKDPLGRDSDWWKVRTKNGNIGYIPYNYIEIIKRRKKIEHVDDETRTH

T14: Hse1, P38753
T14 sequence (P38753 208-285, looked up): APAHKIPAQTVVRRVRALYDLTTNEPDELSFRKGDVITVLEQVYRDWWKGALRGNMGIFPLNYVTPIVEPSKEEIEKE

T15: Bzz1-2, P38822
T15 sequence (P38822 568-633, looked up): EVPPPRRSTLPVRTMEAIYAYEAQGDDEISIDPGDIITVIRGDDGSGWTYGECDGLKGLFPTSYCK

T16: Cdc25, P04821
T16 sequence (P04821 50-136, looked up): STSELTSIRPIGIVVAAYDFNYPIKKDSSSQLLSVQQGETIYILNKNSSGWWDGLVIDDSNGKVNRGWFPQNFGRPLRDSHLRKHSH

T17: Fus1, P11710
T17 sequence (P11710 432-512, looked up): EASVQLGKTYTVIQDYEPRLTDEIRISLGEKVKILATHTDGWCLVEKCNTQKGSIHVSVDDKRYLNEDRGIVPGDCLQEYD

T18: Bud14, P27637
T18 sequence (P27637 247-328, looked up): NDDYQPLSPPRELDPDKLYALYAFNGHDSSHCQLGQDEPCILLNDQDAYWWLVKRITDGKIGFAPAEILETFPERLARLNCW

T19: Boi2, P39969
T19 sequence (P39969 32-116, looked up): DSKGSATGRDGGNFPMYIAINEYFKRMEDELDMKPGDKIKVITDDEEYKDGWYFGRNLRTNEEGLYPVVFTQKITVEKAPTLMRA

T20: Bzz1-1, P38822
T20 sequence (P38822 478-572, looked up): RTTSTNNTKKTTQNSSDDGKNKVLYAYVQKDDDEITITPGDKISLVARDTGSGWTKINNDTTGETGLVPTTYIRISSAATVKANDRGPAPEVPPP

T21: Lsb4, P32793
T21 sequence (P32793 402-468, looked up): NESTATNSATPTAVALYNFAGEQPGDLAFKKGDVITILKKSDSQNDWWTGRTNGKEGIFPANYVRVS


What was measured:
Assay in all cases: SPOT array
Myo3, P36006 = settings: median of control spots 468
Abp1, P15891 = target: T1, Abp1, P15891; settings: median of control spots 935
Bem1-2, P29366 = settings: median of control spots 4347
Cyk3, Q07533 = target: T2, Cyk3, Q07533; settings: median of control spots 1451
Boi1, P38041 = target: T3, Boi1, P38041; settings: median of control spots 1162
Myo5, Q04439 = target: T4, Myo5, Q04439; settings: median of control spots 471
Hof1, Q05080 = target: T5, Hof1, Q05080; settings: median of control spots 4086
Bbc1, P47068 = target: T6, Bbc1, P47068; settings: median of control spots 796
Nbp2, Q12163 = target: T7, Nbp2, Q12163; settings: median of control spots 357
Sho1, P40073 = settings: median of control spots 1148
Sla1-2, P32790 = target: T8, Sla1-2, P32790; settings: median of control spots 712
Lsb3, P43603 = target: T9, Lsb3, P43603; settings: median of control spots 406
Lsb1, P53281 = target: T10, Lsb1, P53281; settings: median of control spots 388
Sla1-3, P32790 = target: T11, Sla1-3, P32790; settings: median of control spots 5475
Pin3, Q06449 = target: T12, Pin3, Q06449; settings: median of control spots 2171
Pex13, P80667 = target: T13, Pex13, P80667; settings: median of control spots 1341
Hse1, P38753 = target: T14, Hse1, P38753; settings: median of control spots 1727
Bzz1-2, P38822 = target: T15, Bzz1-2, P38822; settings: median of control spots 4538
Cdc25, P04821 = target: T16, Cdc25, P04821; settings: median of control spots 969
Fus1, P11710 = target: T17, Fus1, P11710; settings: median of control spots 1200
Bud14, P27637 = target: T18, Bud14, P27637; settings: median of control spots 956
Boi2, P39969 = target: T19, Boi2, P39969; settings: median of control spots 1161
Bzz1-1, P38822 = target: T20, Bzz1-1, P38822; settings: median of control spots 4446
Bem1-1, P29366 = settings: median of control spots 4282
Lsb4, P32793 = target: T21, Lsb4, P32793; settings: median of control spots 397
Rvs167, P39743 = settings: median of control spots 2707
GST = settings: median of control spots 978

Chain of Bem1-2, P29366 (P29366 139-227): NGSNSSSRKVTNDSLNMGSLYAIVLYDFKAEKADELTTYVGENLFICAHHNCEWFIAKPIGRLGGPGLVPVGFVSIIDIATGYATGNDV
Chain of Bem1-1, P29366 (P29366 55-141): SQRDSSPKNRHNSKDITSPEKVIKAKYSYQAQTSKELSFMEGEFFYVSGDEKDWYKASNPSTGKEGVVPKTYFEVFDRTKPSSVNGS
Chain of Rvs167, P39743 (P39743 419-482): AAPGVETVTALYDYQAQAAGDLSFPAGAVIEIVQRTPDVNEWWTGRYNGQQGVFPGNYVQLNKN
Chain of Sho1, P40073 (P40073 287-367): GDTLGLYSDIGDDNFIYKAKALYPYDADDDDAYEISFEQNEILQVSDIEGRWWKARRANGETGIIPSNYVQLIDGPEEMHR

SPOT intensity (Myo3, P36006)	SPOT intensity (Abp1, P15891)	SPOT intensity (Bem1-2, P29366)	SPOT intensity (Cyk3, Q07533)	SPOT intensity (Boi1, P38041)	SPOT intensity (Myo5, Q04439)	SPOT intensity (Hof1, Q05080)	SPOT intensity (Bbc1, P47068)	SPOT intensity (Nbp2, Q12163)	SPOT intensity (Sho1, P40073)	SPOT intensity (Sla1-2, P32790)	SPOT intensity (Lsb3, P43603)	SPOT intensity (Lsb1, P53281)	SPOT intensity (Sla1-3, P32790)	SPOT intensity (Pin3, Q06449)	SPOT intensity (Pex13, P80667)	SPOT intensity (Hse1, P38753)	SPOT intensity (Bzz1-2, P38822)	SPOT intensity (Cdc25, P04821)	SPOT intensity (Fus1, P11710)	Binder	also measured
1	0	10	3	0	0	0	2	0	7	0	0	0	9	13	4	0	0	6	5	YHSRRHPLALGFKYV	SPOT intensity (Bud14, P27637): 4; SPOT intensity (Boi2, P39969): 0; SPOT intensity (Bzz1-1, P38822): 0; SPOT intensity (Bem1-1, P29366): 0; SPOT intensity (Lsb4, P32793): 0; SPOT intensity (Rvs167, P39743): 0; SPOT intensity (GST): 0
0	34	1	3	1	0	0	333	13	26	0	0	0	30	4	0	11	0	67	52	HKVLRPFLLRRLKKD	SPOT intensity (Bud14, P27637): 21; SPOT intensity (Boi2, P39969): 0; SPOT intensity (Bzz1-1, P38822): 1; SPOT intensity (Bem1-1, P29366): 0; SPOT intensity (Lsb4, P32793): 0; SPOT intensity (Rvs167, P39743): 0; SPOT intensity (GST): 0

More lines, now with the values behind:

Binder	SPOT intensity (Myo3, P36006)	SPOT intensity (Abp1, P15891)	SPOT intensity (Bem1-2, P29366)	SPOT intensity (Cyk3, Q07533)	SPOT intensity (Boi1, P38041)	SPOT intensity (Myo5, Q04439)	SPOT intensity (Hof1, Q05080)	SPOT intensity (Bbc1, P47068)	SPOT intensity (Nbp2, Q12163)	SPOT intensity (Sho1, P40073)	SPOT intensity (Sla1-2, P32790)	SPOT intensity (Lsb3, P43603)	SPOT intensity (Lsb1, P53281)	SPOT intensity (Sla1-3, P32790)	SPOT intensity (Pin3, Q06449)	SPOT intensity (Pex13, P80667)	SPOT intensity (Hse1, P38753)	SPOT intensity (Bzz1-2, P38822)	SPOT intensity (Cdc25, P04821)	SPOT intensity (Fus1, P11710)	also measured
RRASLFPRDPKRLRP	7	95	7	3	7	1	21	165	0	67	7	2	0	158	11	2	79	35	148	25	SPOT intensity (Bud14, P27637): 10; SPOT intensity (Boi2, P39969): 8; SPOT intensity (Bzz1-1, P38822): 1; SPOT intensity (Bem1-1, P29366): 0; SPOT intensity (Lsb4, P32793): 4; SPOT intensity (Rvs167, P39743): 0; SPOT intensity (GST): 5
KTRLRPAFIQQLWSS	0	31	0	3	1	0	0	17	4	22	0	0	0	33	15	7	5	0	13	7	SPOT intensity (Bud14, P27637): 4; SPOT intensity (Boi2, P39969): 0; SPOT intensity (Bzz1-1, P38822): 0; SPOT intensity (Bem1-1, P29366): 1; SPOT intensity (Lsb4, P32793): 0; SPOT intensity (Rvs167, P39743): 1; SPOT intensity (GST): 0
HHNRRKPLEVYFKAT	3	10	6	3	0	1	12	7	0	43	0	0	0	14	20	16	6	0	10	565	SPOT intensity (Bud14, P27637): 10; SPOT intensity (Boi2, P39969): 2; SPOT intensity (Bzz1-1, P38822): 3; SPOT intensity (Bem1-1, P29366): 43; SPOT intensity (Lsb4, P32793): 1; SPOT intensity (Rvs167, P39743): 2; SPOT intensity (GST): 1
GRSRLFPHSPLGRSS	0	34	5	2	4	0	14	12	4	21	1	0	0	8	1	4	9	9	34	16	SPOT intensity (Bud14, P27637): 25; SPOT intensity (Boi2, P39969): 1; SPOT intensity (Bzz1-1, P38822): 0; SPOT intensity (Bem1-1, P29366): 0; SPOT intensity (Lsb4, P32793): 0; SPOT intensity (Rvs167, P39743): 0; SPOT intensity (GST): 0
